Assay results from patent US20140087995A1 (published 2014).
Numbered stars: 1 amine (or outer) side, 2 acyl side, 3 side chain; on linkers, the order of the positions; unused ones are H or OH. Bridge positions count the residues as written; N and C are the ends. * marks the point of attachment. C20 diacid = O=C(O)CCCCCCCCCCCCCCCCCCC(=O)*; γGlu = O=C(O)[C@H](CCC(=O)[*:2])N[*:1]

T1: human calcitonin receptor (human, UniProt P30988 25-474)
T1 sequence (looked up): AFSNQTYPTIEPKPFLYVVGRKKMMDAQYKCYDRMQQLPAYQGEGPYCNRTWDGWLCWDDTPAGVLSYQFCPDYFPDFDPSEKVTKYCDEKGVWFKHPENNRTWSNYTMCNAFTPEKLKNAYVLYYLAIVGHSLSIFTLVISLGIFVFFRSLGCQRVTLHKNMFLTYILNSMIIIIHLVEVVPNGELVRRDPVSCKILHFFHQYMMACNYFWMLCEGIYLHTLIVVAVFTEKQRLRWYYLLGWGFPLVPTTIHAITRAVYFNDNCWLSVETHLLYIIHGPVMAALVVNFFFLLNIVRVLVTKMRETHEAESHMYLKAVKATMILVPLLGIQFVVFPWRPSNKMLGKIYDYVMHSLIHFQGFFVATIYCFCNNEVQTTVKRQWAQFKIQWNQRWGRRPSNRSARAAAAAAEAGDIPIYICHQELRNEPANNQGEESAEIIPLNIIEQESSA

T2: rat calcitonin receptor (rat, UniProt P32214 25-516)
T2 construct: whole, on cells; Used as membranes prepared from the transfected cells (Assay VIII); also called rCTR; rat calcitonin (a) receptor
T2 sequence (looked up): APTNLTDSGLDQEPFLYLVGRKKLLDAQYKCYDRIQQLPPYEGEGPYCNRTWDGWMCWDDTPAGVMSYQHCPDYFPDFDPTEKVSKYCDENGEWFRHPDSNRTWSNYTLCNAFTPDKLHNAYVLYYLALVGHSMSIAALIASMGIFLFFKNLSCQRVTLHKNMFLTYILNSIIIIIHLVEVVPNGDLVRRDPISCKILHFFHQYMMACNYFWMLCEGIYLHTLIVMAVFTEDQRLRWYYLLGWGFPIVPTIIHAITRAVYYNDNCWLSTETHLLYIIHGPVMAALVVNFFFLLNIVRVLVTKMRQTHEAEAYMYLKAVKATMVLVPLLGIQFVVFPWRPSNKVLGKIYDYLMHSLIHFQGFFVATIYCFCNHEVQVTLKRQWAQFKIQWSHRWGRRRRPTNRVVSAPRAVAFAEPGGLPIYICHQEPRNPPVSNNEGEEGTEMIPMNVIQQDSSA

T3: human calcitonin receptor (human, UniProt P30988 25-474)
T3 construct: whole, on cells; Used as membranes prepared from the transfected cells (Assay VII); also called hCTR; hCT
T3 sequence (looked up): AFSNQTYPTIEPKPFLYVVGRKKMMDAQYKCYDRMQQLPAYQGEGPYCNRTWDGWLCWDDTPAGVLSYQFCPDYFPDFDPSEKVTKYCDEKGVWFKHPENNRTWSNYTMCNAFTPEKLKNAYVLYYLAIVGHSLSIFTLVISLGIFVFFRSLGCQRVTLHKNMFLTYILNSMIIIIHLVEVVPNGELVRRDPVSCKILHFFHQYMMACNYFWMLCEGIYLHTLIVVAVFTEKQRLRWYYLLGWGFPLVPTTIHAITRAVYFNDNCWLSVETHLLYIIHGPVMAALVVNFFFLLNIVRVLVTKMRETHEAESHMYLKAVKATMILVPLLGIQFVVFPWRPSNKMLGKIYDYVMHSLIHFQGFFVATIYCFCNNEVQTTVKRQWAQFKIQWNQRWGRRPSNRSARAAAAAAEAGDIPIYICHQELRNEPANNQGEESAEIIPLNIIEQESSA

T4: rat amylin receptor (rat calcitonin receptor + rat RAMP 3) (rat, UniProt P32214 25-516; Q9JJ73 23-147)
T4 construct: whole, on cells; Used as membranes prepared from the transfected cells (Assay VI); also called rAmylin-R; rat amylin 3(a) receptor
T4 sequence (looked up) 1: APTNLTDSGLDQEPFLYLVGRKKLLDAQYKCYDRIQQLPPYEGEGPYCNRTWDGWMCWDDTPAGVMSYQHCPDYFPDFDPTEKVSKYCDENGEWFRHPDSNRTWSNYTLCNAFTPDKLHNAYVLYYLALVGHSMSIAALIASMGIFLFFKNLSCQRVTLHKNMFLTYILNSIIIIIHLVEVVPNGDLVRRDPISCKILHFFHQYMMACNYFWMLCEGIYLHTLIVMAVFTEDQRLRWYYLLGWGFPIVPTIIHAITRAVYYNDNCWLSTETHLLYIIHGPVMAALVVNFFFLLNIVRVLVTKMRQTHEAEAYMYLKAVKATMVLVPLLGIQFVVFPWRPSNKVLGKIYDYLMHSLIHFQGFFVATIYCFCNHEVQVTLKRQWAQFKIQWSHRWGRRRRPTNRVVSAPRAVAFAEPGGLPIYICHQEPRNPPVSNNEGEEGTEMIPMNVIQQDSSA
T4 sequence (looked up) 2: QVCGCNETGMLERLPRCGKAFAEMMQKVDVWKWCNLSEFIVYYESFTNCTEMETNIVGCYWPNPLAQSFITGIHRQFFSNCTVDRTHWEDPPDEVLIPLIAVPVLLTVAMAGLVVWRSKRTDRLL


Tests used:
[1] = biological target: T1, human calcitonin receptor; assay: cell-based or functional assay
[2] = biological target: T2, rat calcitonin receptor; assay: SPA competition binding, displacement of 125I-calcitonin from membranes of BHK tk'ts 13 cells transfected with rat calcitonin receptor (Assay VIII)
[3] = biological target: T3, human calcitonin receptor; assay: ratio of IC50 on human calcitonin receptor (Assay VII) to IC50 on human amylin receptor (Assay V)
Procedure: The resulting pellet was resuspended, homogenized and centrifuged (20.000 rpm, 15 min) in a buffer containing 20 mM Na-HEPES and 0.1 mM EDTA (pH 7.4, buffer 2). The resulting pellet was resuspended in buffer 2 and protein concentration was measured (BCA protein Assay, Pierce). The homogenate was kept cold during the whole procedure. The membranes were kept at −80° C. until use. The assay was performed in a 384 well Optiplate (PerkinElmer) in a total volume of 40 ul. Membranes were mixed with SPA beads. Final concentration of membranes 35 ng/μL final and SPA beads was 0.05 mg/well. Test-compounds were dissolved in DMSO and further diluted in assay buffer (50 mM Hepes, pH 7.4, 1 mM CaCl2, 5 mM MgCl₂, 0.1% OA and 0.02% Tween20). […] The final mixture was incubated with shaking at 400 rpm for 120 min at 25° C. prior to centrifugation (1500 rpm, 10 min). Samples were analyzed on TopCounter™ (Packard). The IC₅₀ was calculated using (one site binding competition analysis) GraphPad Prism5 as a measure of receptor affinity.
Membranes were prepared in the following way; the cells were rinsed with PBS and incubated with Versene for approximately 5 min before harvesting. The cells were flushed with PBS and the cell-suspension was centrifuged for 5 min at 1000 rpm. Cells were homogenized (Ultrathurrax) in a buffer containing 20 mM Na-HEPES and 10 mM EDTA (pH 7.4) and centrifuged at 20.000 rpm for 15 min. The resulting pellet was resuspended, homogenized and centrifuged (20.000 rpm, 15 min) in a buffer containing 20 mM Na-HEPES and 0.1 mM EDTA (pH 7.4, buffer 2). The resulting pellet was resuspended in buffer 2 and protein concentration was measured (BCA protein Assay, Pierce). The homogenate was kept cold during the whole procedure. The membranes were kept at −80° C. until use. Assay was performed in a 384 well Optiplate (PerkinElmer) in a total volume of 40 ul. Membranes were mixed with SPA beads.

[4] = biological target: T4, rat amylin receptor (rat calcitonin …); assay: SPA competition binding, displacement of 125I-rat amylin from membranes of BHK tk'ts 13 cells transfected with rat calcitonin receptor + rat RAMP 3 (Assay VI)
[5] = biological target: T2, rat calcitonin receptor; assay: ratio of IC50 on rat calcitonin receptor (Assay VIII) to IC50 on rat amylin receptor (Assay VI)

hCTR funct. EC50 (pM) [1] [pM]	IC50 [2] [nM]	Ratio hCT/hAmylin binding [3]	IC50 [4] [nM]	Ratio rCT/rAmylin binding [5]	Binder
537					{C20 diacid-γGlu}-GRCNTATCATQRLAAFLRHSSPNFGAIPSSTNVGHNTY-NH2 (disulfide 3-8; SMILES CC[C@H](C)[C@H](NC(=O)[C@H](C)NC(=O)CNC(=O)[C@H](Cc1ccccc1)NC(=O)[C@H](CC(N)=O)NC(=O)[C@@H]1CCCN1C(=O)[C@H](CO)NC(=O)[C@H](CO)NC(=O)[C@H](Cc1c[nH]cn1)NC(=O)[C@H](CCCNC(=N)N)NC(=O)[C@H](CC(C)C)NC(=O)[C@H](Cc1ccccc1)NC(=O)[C@H](C)NC(=O)[C@H](C)NC(=O)[C@H](CC(C)C)NC(=O)[C@H](CCCNC(=N)N)NC(=O)[C@H](CCC(N)=O)NC(=O)[C@@H](NC(=O)[C@H](C)NC(=O)[C@@H]1CSSC[C@H](NC(=O)[C@H](CCCNC(=N)N)NC(=O)CNC(=O)CC[C@H](NC(=O)CCCCCCCCCCCCCCCCCCC(=O)O)C(=O)O)C(=O)N[C@@H](CC(N)=O)C(=O)N[C@@H]([C@@H](C)O)C(=O)N[C@@H](C)C(=O)N[C@@H]([C@@H](C)O)C(=O)N1)[C@@H](C)O)C(=O)N1CCC[C@H]1C(=O)N[C@@H](CO)C(=O)N[C@@H](CO)C(=O)N[C@H](C(=O)N[C@@H](CC(N)=O)C(=O)N[C@H](C(=O)NCC(=O)N[C@@H](Cc1c[nH]cn1)C(=O)N[C@@H](CC(N)=O)C(=O)N[C@H](C(=O)N[C@@H](Cc1ccc(O)cc1)C(N)=O)[C@@H](C)O)C(C)C)[C@@H](C)O, 38 residues)
	65.9	36.2	0.674	97.7	{C20 diacid-γGlu}-GRCNTATCATQRLAHFLRHSSPNFGAIPSSTNVGPNTY-NH2 (disulfide 3-8; SMILES CC[C@H](C)[C@H](NC(=O)[C@H](C)NC(=O)CNC(=O)[C@H](Cc1ccccc1)NC(=O)[C@H](CC(N)=O)NC(=O)[C@@H]1CCCN1C(=O)[C@H](CO)NC(=O)[C@H](CO)NC(=O)[C@H](Cc1c[nH]cn1)NC(=O)[C@H](CCCNC(=N)N)NC(=O)[C@H](CC(C)C)NC(=O)[C@H](Cc1ccccc1)NC(=O)[C@H](Cc1c[nH]cn1)NC(=O)[C@H](C)NC(=O)[C@H](CC(C)C)NC(=O)[C@H](CCCNC(=N)N)NC(=O)[C@H](CCC(N)=O)NC(=O)[C@@H](NC(=O)[C@H](C)NC(=O)[C@@H]1CSSC[C@H](NC(=O)[C@H](CCCNC(=N)N)NC(=O)CNC(=O)CC[C@H](NC(=O)CCCCCCCCCCCCCCCCCCC(=O)O)C(=O)O)C(=O)N[C@@H](CC(N)=O)C(=O)N[C@@H]([C@@H](C)O)C(=O)N[C@@H](C)C(=O)N[C@@H]([C@@H](C)O)C(=O)N1)[C@@H](C)O)C(=O)N1CCC[C@H]1C(=O)N[C@@H](CO)C(=O)N[C@@H](CO)C(=O)N[C@H](C(=O)N[C@@H](CC(N)=O)C(=O)N[C@H](C(=O)NCC(=O)N1CCC[C@H]1C(=O)N[C@@H](CC(N)=O)C(=O)N[C@H](C(=O)N[C@@H](Cc1ccc(O)cc1)C(N)=O)[C@@H](C)O)C(C)C)[C@@H](C)O, not restated for each compound)
	56.3	26.5	0.436	129	{C20 diacid-γGlu}-GRCNTATCATQRLAAFLRHSSPNFGAIPSSTNVGPNTY-NH2 (disulfide 3-8, not restated for each compound)
